# Results as given in the nanobody polyreactivity screen of Harvey et al. (2022).
# Test: yeast display, Sf9 membrane polyspecificity reagent, FACS + sequencing; frameworks hold sequencing errors
# Method in brief: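 Galactose induction of a Saccharomyces cerevisiae BJ5465 synthetic nanobody display library ran 36–48 hours. The cells were then stained for 1 hour at 4 °C with 10% biotinylated, detergent-solubilized Sf9 membrane reagent, pulled down on streptavidin microbeads and FACS-sorted into low and high (top ~1%) gates on expression and reagent-binding fluorescence. Labels for polyreactivity follow the gate of origin.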
row,Sequence,polyreactivity (PSR sort gate)
1,QVQLVESGGGLVQAGGSLRLSCAASGFTFWTYAMGWYRQAPGKERELVAAIDSGGSTYYADSVKGRFTISRDNAKNTVYLQMHSLKPEDTAVYYCNAGPSVTSGYDYDYWGQGTQVTVSS,low polyreactivity
2,QVQLVESGGGLVQAGGSLRLSCAASGIIFSFNAMGWYRQAPGKERELVAAITWRDGSTYYADSVKGRFTISRDNAKNTVYLQMNSLKPEDTAVYYCNADLLDISSYDGMDYWGQGTQVTVSS,low polyreactivity
3,QVQLVESGGGLVQAGGSLRLSCAASGNTLNYYTMGWYRQAPGKERELVAAISSSGGSTYYADSVKGRFTISRDNAKNTVYLQMNSLKPEDTAVYYCAVLFYNNFGYWGQGTQVTVSS,low polyreactivity
4,QVQLVESGGGLVQAGGSLRLSCAASGGTFGYNAMGWYRQAPGKERELVAAISYSGTSTYYADSVKGRFTISRDNAKNTVYLQMNSLKPEVTAVYYCNAGRYIKMGDWGQGSQVTVSS,high polyreactivity
5,QVQLVESGGGLVQAGGSLRLSCAASGRTFYYYAMGWYRQAPGKERELVAAISSRGGRTYYADSVKGRFTISRDNAKNTVYLQMNSLKPEDTAVYYCAKVVAYYDRDSWGQGTQVTVSS,high polyreactivity
6,QVQLVESGGGLVQAGGSLRLSCAASGRIFNTYAMGWYRQAPGKERELVAAITSSGGSTYYADSVKGRFTISRDNEKNTVYLQLNSLKPEDTAVYYCAKPWYVRGGSSKYVYWGQGTQVTVSS,high polyreactivity
7,QVQLVESGGGLVQAGCSLRLSCAASGRIFRLNAMGWYRQAPGKERELVAAISSSGGSTYYADSVKGRFTISRDNAKNTVYLQMNSLKPEDTAVSYCAKYPVGGYDYWGQGPQVTVSS,low polyreactivity
8,QVQLVESGGGLVQAGGSLRLSCAASGYTYGYNAMGSYRQAPGKERELVAAITKNGGSTYYADSVKGRFTISRDNAKNTVYLQMNSLKPEDTAVYYCAARIYYSRTFGYYYWGQGTQVTVSS,high polyreactivity
9,QVQLVESGGGLVQAGGSLRLSCAASGRIFGYYTMGSYRQAPGKEREFVASISSTGGSTYYADSVKGRFTISRDNAKNTVYLQMNSLKPEDTAVYYCAARGRYVIDGYRMYYWGQGTQVTVSS,high polyreactivity
10,QVQLVESGGGLVQAGGSLRLSCAASGRTFYYYAMGWYRQAPGKERELVAAIRWRGGRTYADSVKGRFTISRDNAKNTVYLQMNSLKQEDTAVYYCNAGFHYPSTYWIYYSGGNYWGQGTQVTVSS,high polyreactivity
11,QVQLVESGGGLVQAGGSLRLSCAASGIIFGRYAMGWYRQAPGKERELVATISRSGGTTYYADSVKGRFTISRDNAKNTVYLQMNSLKPEDTAVYYCAARWTSRYDYWGQGTQVTVSS,high polyreactivity
12,QVQLVESGGGLVQAGGSLRLSCAASGFTFIYYAMGWYRQAPGKERELVAGISSGGRTSYADSVKGRFTISRDNAKNTVYLQMNSLKPEDTAVYYCATPVSRFRRTEYGYYYWGQGTQVTVSS,high polyreactivity
13,QVQLVESGGGLVKAGGSLRLSCAASGNIFTSNAMGWYRQAPGKERELVAAITSGGSTYYADSVKGRFTISRDNAKNTVYLQMNSLKPEDTAVYYCATLPRPHLRPYYYWGQGTQVTVSS,high polyreactivity
14,QVQLVESGGGLVQAGGSLRLSCAASGRTSKVYAMGWYRQAPGKERELVARITSSGVRTYYADSVKGRFTISRDNAKNTVYLQMNRLKPEDTAVYYCAKDARALWLHSGIYDYWGQGTQVTVSS,low polyreactivity
15,QVQLVESGGRLVQAGGSLRLSCAASGFTFVYYAMGWYRQAPGKERELVAAVSWSGGTTYYADSVKGRFTISRDNAKNTVLLQMNSLKPEDTAVYYCNVYPAYNYFDYDYWGQGTQVTVSS,high polyreactivity
16,QVQLVESGGGLVQAGGSLRLSCADSGITFDWNTMGWYRQAPGKERELVAAITFRSGSTYYADSVKGRFTISRDNAKNTVYLQMNSLKPEDTAVYYCNKDTAYTSPRFDYWGQGTQVTVSS,high polyreactivity
17,QVQLVESGGGLVQAGGSLRLSCAASGRIFGKYAMGWYRQAPGKERELVAANSRSCASTYYADSVKGRFTISRDNAKNTVYLQMNSLKPEDTAVYYCAAVPPYNYRFRVDYWGQGTQVTVSS,high polyreactivity
18,QVQLVESGGGLVQAGGSLRLSCAASGSTLPYYAMGWYRQAPGKERELVAAITSSGGDTYYADSVKGRFTISRDNAKNTVYFQMNSLKPEDTAVYYCAKSYSARSTVRKLFYFAYDYWGQGTQVTVSS,low polyreactivity
19,QVQLVESGGGLVQAGGSLRLSCAASGSTFRWNAMGWYRQAPGKERELVATITWGGGSTYYADSVKGRFTISRDNAKNTVYLQMNSLKPEDTAVYYCARRKRARYSYYQYNYWGQGTQVTVSS,high polyreactivity
20,QVQLVESGGGLVQAGGSLRLSCAASGSTFYRNAMGWYRQAPGKERELVAAISSTGGSTYYADSVKGRFTISRDNAKNTVYLQMNSLKAEDTAVYYCAVDPGLTKGFGYWGQGTHVTVSS,low polyreactivity
21,QVQLVESGGGLVQAGGSLRLSCAASGSTSDINAMGWYRPAPGKERELVAVITFSGGTTNYADSVKGRFTISRDNAKNTVYLQMNSLKPEDTAVYYCNADTLTTTRRFNPYDYWGQGTQVTVSS,low polyreactivity
22,QVQLVESGGGLVQAGGSLRLSCAASGGTFAWYAMGWYRQAPGKERELVAAITSDGITKYADSVKGRFTISRDNAKNTVYLQMNSLKPEDTAVYYCAKDDGPSDWIGRWFDYWGQGTQVTVSS,low polyreactivity

row,Sequence,polyreactivity (PSR sort gate)
1,QVQLVESGGGLVQAGGSLRLSCAASGRTFEPNAMGWYRPAPGKERELVAAISSSDGSTYYADSVKGRFTISRDNAKNTVYLQMNSLKPEDTAVYYCAADAGYLYDWPYNYYYWGQGTQVTVSS,low polyreactivity
2,QVQLVESGGGLDQAGGSLRLSCAASGSTFYYYAMGWYRQAPGKERELVASISDDGSTNYADSVKGRFTISRDNAKNTVYLQMNSLKPEDTAVYYCAAVWWHQFGSAWYQMGYWGQGTQVTVSS,low polyreactivity
3,QVQLVESGGGLVQAGGSLRLSCAASGSFFRNYAMGWYRQAPGKERELVAAISRRGTSTFYADSVKGRFTISRDNAMNTVYLQMNSLKPEDTAVYYCAARGSAGGDYGYWGQGTQVTVSS,high polyreactivity
4,QVQLVESGGGLVQAGGSLRLSCAASGRTFGVYAMGWYRQAPGKERELVARIRYSGGTTRYADSVKGRFTISRDNAKITVYFQMNSLKPEDTAVYYCAARSGYFRSRFDYWGQGTQVTVSS,high polyreactivity
5,QVQIEESGGCLVQAGGSLRLTCAASGRIISWNAMGWSRQAPGKERELVAGITWNGGRTYYADSVKGRFTISRDNVKNTVYLQMNSLKPEDTAVFSCNAERFDLTYNYWGQGTQVTVSS,high polyreactivity
6,QVQLVESGGGLVQAGGSLRLSCAASGRISPKNAMGWYRQAPGKERELVATIRKIGGRTYYADSVKGRFTISRDNAKNTVYLQMNSLKPEDTAVYYCATDFAPSYYPDRFDYRGQGTQVTVSS,low polyreactivity
7,QVQLVESGGGLVQAGGSLRLSCAASGLTFKRYAMGWYRQAPGTEREFVAAISAGGASTHYADSVKGRFTISRDNAKNTVYLQMNSLKPEDTAVYYCATDYRTFRPSFGYWGQGTQVTVSS,low polyreactivity
8,QVQLVESGGGLVQAGGSLRLSCAASGFIFDGYAMGWYRQAPGKERELVAAISSSGGRTHYADSVKGRFTISRDNAKNTVYLQMNSLKPEDTAVYYCAVRFKWQGYNYWGQGTQVTVSS,high polyreactivity
9,QVQRVESGGGLVQAGGRLRLSSSASGSIFPTNTMGLSRQSPGKERELVAAITGSGGSRYYADSVKGRFTISRDNAKNTVYLQMNSLKPEDTAVYYCAARYRVDGVKYGYWGQGTQVTVSS,high polyreactivity
10,QVQLVESGGGLVQAGGSLRLSCAASGRIFRLYAMGWYRQAPGKERELVATITDVGSTYYADSVKGRFTISRDNAKNTVYLQMNSLKPEDTAVYYCAAESYYTSYWKYYYWGQGTQVTVSS,high polyreactivity
11,QVQLVESGGGLVQAGGSLRLSCAASGFTFYTNAMGWYRQATGKERELVAVITSGGNTYYADSVKGRFTISRDNAKYTVYLQMNSLKPEDTAVYYCAAKPKRPIRFDYWGQGTQVTVSS,high polyreactivity
12,QHQLVESGGGLVQAGGSLRLSCAASGRTFHRNAKGWYRQAPWQERELVAAITGSGGSTYYADSVKGRFTISRDNAKNTVYLQMYSLKPEDTAVYYCATYSYPERTGGQRTHYYWGQGTQVTVSS,high polyreactivity
13,QVQLVESGGGLVQAGGSLRLSCAASGRTFYTNAMGWYRQAPGKERELVASISGSGGSTYYADSVKGRFTISRDNGKNTVYLQMNSLNPEDTAVYYCAADPAPTVEFGKYDYWGQGTQVTVSS,low polyreactivity
14,QVQLVESGGGLVQAGGSLRLRCAASGRIFVPYVMGWYRQAPGKERELVASISDSDTSTYYADSVKGRFTISRDNAKNTVYLQMNSLKPEDTAVYYCNVDYWGQGTQVTVSS,low polyreactivity
15,QVQLVESGGGLVQAGGSLRLSCAASGYTLQTYAMGWYRQAPGKERELVAAISYRGGRTYYADSVKGRFTISRDNAKNTVYLQMNSLKPEDTAVYYCATRVRYKDYPYSIRYYWGQGTQVTVSS,high polyreactivity
16,QVQLVESGGGLVQAGGSLRLTCAASGFIFPRYAMGWYRQAPGKERELVAAISGNGVRTYYADSVKGRFTISRDNAKNTVYLQMNSLNPEDTAVYYCNTGADVRYRYYYWGQGTQVTVSS,high polyreactivity
17,QVQHVESGGGLVQAGGSLRLSCAASIRIFRYYAMGRSRQGPGKEREVVASSRSASSTYYADSVKGRFTISRDNAKNPVYLQMNSLKAEDTAVYYCNAVSPLSIWSSRDGWYGYWGQGTQVTVSS,high polyreactivity
18,QFQLVESGGGLVQAGGTLRLSCAASRRIFIHYAMGLSRQAPGKERELVSAISASGGTTNYADSVKGRFTISRDNAKNTVYLQLKSQKQEDTAVYYCAAEGYRSWRGLLSRYYYWGQGTQVTVSS,high polyreactivity
19,QVQLVESGGGLVQAGGSLRLSCAASGRIFWTYAMGWYRPAPGKERELVAAITWRGGSTSYADSVKGRFTISRDNAKNTVYLQMNSLKPEDTAVYYCNARYSGYSPWGNDYWGQGTQVTVSS,high polyreactivity
20,QVQLVESGGGLVQAGGSLRLSCAASGRTIYKYMGWDRQAPGKERELVAAIRWSGGSTYYADSVKGRFTISRDNAKNTVYLQMNSLKPEETAVYYCNVDSYGYKYDYWGQGTQVTVSS,low polyreactivity
21,QVQIVESGGGLVQAGGSHRLSCAASVFTFGGNVMGWYRQAPGKEREFVAAISSSGGSTYYADSVKGRFTISRDNEKNTVFLQINSLKPDDTAVYYCAKYAVVYQYRYYHWGQGTQVTVSS,high polyreactivity
